From the RNAGym collection of RNA variant scans (doi:10.1073/pnas.2313332121)
Fewer inactive variants are shown than the library holds.

B1: TPR 5TU (parent)
chain: GGAUCUUCUCGAUCUAACAAAAAAGACAAAUCUGCCACAAAGCUUGAGAGCAUCUUCGGAUGCAGAGGCGGCAGCCUUCGGUGGCGCGAUAGCGCCAACGUUCUCAACUAUGACACGCAAAACGCGUGCUCCGUUGAAUGGAGUUUAUCAUG

Variants of: B1
Assay: polymerase ribozyme fitness, log enrichment relative to wild type (log ratio); higher = more active; in vitro selection for triplet polymerase activity
Method in brief: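 Libraries of mutants in each subunit of a heterodimeric triplet polymerase ribozyme were generated by PCR and transcribed. In triplicate, each went through one in vitro selection round: annealing with biotinylated primer, partner subunit and triplets; frozen incubation at −7 °C; gel excision of extended constructs; streptavidin-bead capture; RT-PCR. Fitness, taken from Illumina sequencing of input and output libraries, is the logarithm of a genotype's enrichment over wild-type enrichment, averaged across replicates with inverse-variance weights. The logarithm is base 2, and genotypes needed ≥10 input reads and ≥1 read per output to be kept.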

Variant | polymerase ribozyme fitness (log ratio)
GGAUCUUCUCGAUCUAACAAAAAAGACAAAUCUUCCACAAAGCUUGAGAGCAUCUUCGGAUGCAGAGGCGGCAGCUUUCGGUGGCGUGAUAGCGCCAACGUUCUCAACUAUGACACGCAAAACUCGUGCUCCGUUGAAUGGAGUUUAUCAUG [G34U C76U C87U G124U] | ≤ -4.2
GGAUCUUCUCGAUCUAACAAAAAAGACAAAUCUUCCACAAAGCUUGAGAGCAUCUUCGGAUGCAGAGGCGGCAGCCUUCGGUUGCGCGAUCGCGCCAAUGUUCUCAUCUAUGACACGCAAAACGCGUGCUCCGUUGAAUGGAGUUUAUCAUG [G34U G83U A91C C99U A107U] | ≤ -4.2
GGAUCUUCUCGAUCUAACAAAAAAGACAAAUCUUCCACAAAGCUUGCGAGCAUCUUCGGAUGCAGAAGCGGCAGCCUUAGGUGCCGCGAUAGCGACAACGUUCUCAACUAUGACACGCAAAAGGCGUGCUCCGUGGAAUGGAGUUUAUCAUG [G34U A47C G67A C79A G84C C95A C123G U135G] | ≤ -4.2
GGAUCUUCUCGAUCUAACAAAAAAGACAAAUCUGACACAAAGCUUGCGAGCAUCUUCGGAUGCAGAGGCGGCAGCCUUCGGUGGCGCGAUAGCGCCAACGUUCUCAACUAUGACACGCAAAACGCGUGCUCCGUUGAAUGGAGUUUAUCAUG [C35A A47C] | -3.11
GGAUCUUCUCGAUCUAACAAAAAAGACAAAUCUGACACAAAGCUUGAGAGCAUCUUCGGCUGCAGUGGCGGCAGCCUUCGGUGGCGCGAUAGCGCCAACGUUCUCAACUAUGACACGCAUAACGCGUGCUCCGUUGAAUGGAGUUCAUCUUG [C35A A60C A66U A120U U146C A150U] | ≤ -4.2
GGAUCUUCUCGAUCUAACAAAAAAGACAAAUCUGACACGAAGCUUGAGAGCAUCUUCGGAUGCAGAGGCGGCAGCCUUCGGUGGCGCGAUAGCGCCAACGUUCUCAACUAUGACACGCAAAACGCGUGCUCCGUUGAAUGGAGUUUAUCAUG [C35A A39G] | ≤ -4.2
GGAUCUUCUCGAUCUAACAAAAAAGACAAAUCUCCCACAAAGCUUGAGAGCAUCUUCGGAUGCAGAGGCGGCAGCCUUCGGUGGCGCGAUAGCCCCAACGUUCUCAACUAUGACACGCAAAACGCGUGCUCCGUUGAAUGGAGUUUAUCAUG [G34C G94C] | -3.85
GGAUCUUCUCGAUCUAACAAAAAAGACAAAUCUCCCACAAAGCUUGAGAGCAUCUACGGAUGCAGAGGCGGCAGCCUUCGGUGGCGCGAUAGCGCCAACGUUCUCAACUAUGACACGCAAAACGCGUACUCCGUCGAAUUGAGUUUAUCAUG [G34C U56A G128A U135C G140U] | ≤ -4.2
GGAUCUUCUCGAUCUAACAAAAAAGACAAAUCUCCCACAAAGCUUGAGAGCAUCUUCGGAGGCAGAGGCGGCAGCCUUCGGUGGCGCGAUAGCGCCAACGUUCUCAACUAUGACACGCAAAACGCGUGCUCCGUUGAAUGGAGUUUAUCGUG [G34C U61G A150G] | ≤ -4.2
GGAUCUUCUCGAUCUAACAAAAAAGACAAAUCUUCCACAAUGCUUGAGAGCAUCUUCGGAUGCAGAGGCGGCAGCCUUCGGUGACGCGAUAGCGCCAACGUUCUCAACUAUGACACGCAAAACGCGUGCUCCGUUGAAUGGAGUCUAUCAUG [G34U A41U G84A U145C] | -3.69
GGAUCUUCUCGAUCUAACAAAAAAGACAAAUCUUCCACUAAGCUUGAAAGCAUCUUCGGAUGCAGAGGCGGCAGCCGUGGGUGGCGCGAUAGCGUCAACGUUCUCAACUAUGACACGCAAAACGCGUGCUCCGUUGAAUGGAGUUUAUCAUG [G34U A39U G48A U77G C79G C95U] | ≤ -4.2
GGAUCUUCUCGAUCUAACAAAAAAGACAAAUCUUCCACAAAGCUUGAUAGCAUCUUCGCAUGCAGACGCGGCAGCCUUCGCUGGCGCGAUAGCGCCAACGUUCUCAACUAUGACACGCAAAACGCGUGCUCCGAUGAAUGUAGUUUAUCAUG [G34U G48U G59C G67C G81C U134A G141U] | ≤ -4.2
GGAUCUUCUCGAUCUAACAAAAAAGACAAAUCUUCCACAAAGCUUGAGAGCAUCUUCGGAUGCAGAGGCGGCAGCCUUCGGUGGCGCGAUAGCGCGAACGUUCUCAACUAUGACACGCAAAACGCGUGCUCCGUUGAAUGGAGCUUAUCAUG [G34U C96G U144C] | ≤ -4.2
GGAUCUUCUCGAUCUAACAAAAAAGACAAAUCUUCCACAAAGCUUGAGAGCAUCUUCUGAUGCAGAGGCGGCAGCCUUCGGUGGCGAGAUAGCGCCACCGUUCUCAACUAUGACACGCAAAACGCGUGCUCCGUUGAAUGGACUUUAUCAUG [G34U G58U C87A A98C G143C] | ≤ -4.2
GGAUCUUCUCGAUCUAACAAAAAAGACAAAUCUUCCACAAAGCUUGGGAGCAUCUUCGGAUGCAGAGGCGGCAGCCUUCGGUGGCGCGAUAUCGCCAAUGUUCUCAACUAUGACACGCCAAACGCGUGCUCCGUUGAAUGGAGUUAAUCAUG [G34U A47G G92U C99U A119C U146A] | ≤ -4.2
GGAUCUUCUCGAUCUAACAAAAAAGACAAAUCUUCCACAAAGCUUGAGAGCAUCAUCGGCUGCAGAGGCGGCCGCCUUCGGUGGUGCGAUAGCGCCAACGUUCUCAACUAUGACACGCAAAACGCGUGCUCCGUUCAAUGGAGAUUAUCAUG [G34U U55A A60C A73C C85U G136C U144A] | ≤ -4.2
GGAUCUUCUCGAUCUAACAAAAAAGACAAAUCUUCCACAAAGCUUGAGAGCAUCUUCGGAUGCAGAGGCGGCAGCCUUCGGUGACGCGAUAGCGUCAACGUUCUCAACUAUGAGACGCAAAACGCGUGCUCCGUUGAAUGGAGUUUAUCAUG [G34U G84A C95U C114G] | -4.02
GGAUCUUCUCGAUCUAACAAAAAAGACAAAUCUGACACAUAGCUUGAGGGCAUCUUCGGAUGCAGAGGCGGCAGCCUUCGGUGGCGAGAUAGCGCCAACGUUCUCAACUAUCACACGCAAAACGCGUGCUCCGUUGAAUGGAGUUUAUCAUG [C35A A40U A49G C87A G112C] | ≤ -4.2
GGAUCUUCUCGAUCUAACAAAAAAGACAAAUCUUCCACAAAGCUUGAGAGCAUCUUCGGCUGCAGAGGCGGCAGCCUUCGGUGGCGCGAUAGCGCCAACGUUCUCAAGUAUGACACGCAAAACGCGUGCUCCGUUGAAUGGAGUUUAUCCUG [G34U A60C C108G A150C] | -4.17
